The source of these data is publication doi:10.1101/2023.11.22.568272, “Sec7 regulatory domains scaffold autoinhibited and active conformations” (bioRxiv, 2023).

This data set concerns the molecule itself. Briefly: cryo-EM structure; single-particle cryoEM of purified full-length T. terrestris Sec7 with 2 mM fluorinated fos-choline 8; C2 symmetry for the dimer consensus map (5.3 Å), focused monomer map 3.7 Å, composite dimer model.

B1: full-length Sec7 from Thielavia terrestris (natural protein)
chain: MEQKLISEEDLNSAVDHHHHHHRIPGLINSSLKFVVSSLDIIAAQAGRNKQLAELAEKALAAIKENDQQLPDPEVVFAPLQLATKSGTIPLTTTALDCIGKLISYSYFSAPSSSATQDGTEQTPLIERAIDTICDCFQGETTLVEIQLQIVKSLLAAVLNDKIIVHGAGLLKAVRQVYNIFLLSRSTANQQVAQGTLTQMVGTVFERVKTRLHMKEARANLGRLKASRSSLAVDRSDDQDSQAGKVDGEDATVETVSDATPSESVDKAGGGKLTLKDLEHRKSFDDSHMGDGPTMVSQVKPMKKASRSVSEQSLQESPQDETPESLDAEDEAYIRDAYLVFRSFCNLSTKILPPDQLYDLRGQPMRSKLISLHLIHTLLNNHITVFTSPLCTIRNTKNNEPTNFLQAIKYYLCLSITRNGASSVDRVFDICCEIFWLMLKYMRSSFKNEIEVFLNEIYLALLARRNAPLSQKLTFVGILKRLCEDPRALVELYLNYDCNQNVDNIFQTIVEDLSRFATASVPITPTQEQQYEESRSKSATAGEWQIKSVLPPPLSVALIATNHEADTELPKEYVMKRTALDSLVETLRSLVHWSQPGRPELNGASGDVQRRTSSDDLGDSIDPSMSETASRMEVPIAPATPVIDDDPDQLEKEKARKTAMTNAIKVFNFKPKHGIKLLIKEGFIPSDKPEDIARFLLREERLDKAQIGEYLGEGDQKNVDIMHAFVDMMDFSKKRFVDALREFLQAFRLPGEAQKIDRFMLKFAHRYVTGNPNAFANADTPYVLAYSVIMLNTDLHSSKVVKRMSKAEFIKNNRGINDNADLPDEYLIGIYDDIASNEIVLKSEREAAAAAGTLPAQSTGLAGLGQAFSNVGRDLQREAYVQQSEEISLRSEQLFRDLYRSQRKSATKGGVKFISATSFKHVGPMFDATWMSFFSTLSSLVQKTHNLDVNKLCLEGMKLATKIACLFDLSTPREAFISMLKNTANLNNPREMQAKNVEALKVLLDLAQTEGNYLKESWKDVLLCISQLDRLQLISGGVDESAVPDVSRARFVPPPRTETGESRKSTSSARRTRPRAHTGPQGVSLEIALESRSDEVIKSVDRIFTNTANLSRDAIIHFARALTEVSWDEIKVSGSNDSPRTYSLQKIVEISYYNMTRVRFEWSHIWDVLGEHFNRVGCHANTAIVFFALDSLRQLSMRFMEIEELAGFKFQKDFLKPFEHVMSNSSNVTVKDMVLRCLIQMIQARGENIRSGWRTMFGVFTVAAREPYESIVNLAYENVTQVYKTRFGVVISQGAFTDLIVCLTEFSKNMRFQKKSLQAMETLKSVIPTMLKTPECPLSQHKPTATTASGSESHSKKAAVQQTRTSVEEGFWFPVLFAFHDVLMTGEDLEVRSNALNYFFETLLRYGGDFPPEFWDILWRQQLYPIFMVLRSRPEMTNALNHEELSVWLSTTMIQALRNMITLFTHYFDALEYMLDRFLELLALCICQENDTIARIGSNCLQQLILQNVTKFTAEHWAKIVGAFCELFERTTAYQLFSATTINSTASLSPPPSGLELGGPLSPTSATAPVDGKSLKINGVETNGQTPGAEPANGDADGNGTAAAAADASAPAATPQPQQGPAQQLEEFKPNNPLQQQPVVVTAARRRFFNRIISRCVLQLLMIETVNELFSNDAVYAQIPSAELLRLMALLKKSFLFAKRFNADKDLRMRLWREGFMKQPPNLLKQESGSAATYVAILFRMFGDTAPDRRGSRADVEAALVPLCRDIIRGYTALDDESQHRNIVAWRPVVVDVLEGYAAFPRDAFAAHIRSFYPLVVELLGKDLGQDLRAALLLVLRRVGEVGLGIEGMGSGGAAAAAAAGAAAASSGQGNGNGAAAAAADSERRSSVLSVPSGPRHTPSMDSLNDDPSRQVMGKAEQKLISEEDLNSAVDHHHHHH
As usually defined, the stoichiometry N is the number of molecules, sites or subunits per partner or assembly. Regarding B1, the “stoichiometry N” value came out at 2.
